Source: patent US20070009529A1, “Agents that dissolve arterial thrombi” (New York University, priority 2002, published 2007)

How the values were obtained:
platelets [1] = test: Platelet 12(S)-HETE generation; type: cell-based
Text: Recombinant ADAMTS-18 was then made with the expression vector pBudCE4.1 in 293T cells. This peptide induced platelet 12(S)—HETE and oxidation/fragmentation in an identical kinetic fashion as anti-GPIIIa49-66 antibody. Both expressed rADAMTS-18, and HUVEC conditioned media ADAMTS-18 could be activated by thrombin (0.5μ/mL and then neutralized with hirudin), with optimum effect at one hour (n=4). HUVEC ADAMTS-18 induced oxidation fragmentation could be inhibited about 50% by an scFV antibody raised against the ADAMTS-18 (18-mer) peptide as well as GPIIIa49-66 peptide, as well as RGDS (GPIIIa ligand binding site) (n=7).

platelets [2] = test: Platelet oxidation/fragmentation induced independently of anti-GPIIIa49-66 (DCHF-loaded platelets); type: cell-based

B1: Recombinant ADAMTS-18: recombinant disintegrin and metalloprotease with thrombospondin-like motifs, expressed with pBudCE4.1 in 293T cells (protein, UniProt Q8TE60 285-1221, looked up)
A disintegrin and …: SAGKSQKGLNVETLVVADKKMVEKHGKGNVTTYILTVMNMVSGLFKDGTIGSDINVVVVSLILLEQEPGGLLINHHADQSLNSFCQWQSALIGKNGKRHDHAILLTGFDICSWKNEPCDTLGFAPISGMCSKYRSCTINEDTGLGLAFTIAHESGHNFGMIHDGEGNPCRKAEGNIMSPTLTGNNGVFSWSSCSRQYLKKFLSTPQAGCLVDEPKQAGQYKYPDKLPGQIYDADTQCKWQFGAKAKLCSLGFVKDICKSLWCHRVGHRCETKFMPAAEGTVCGLSMWCRQGQCVKFGELGPRPIHGQWSAWSKWSECSRTCGGGVKFQERHCNNPKPQYGGLFCPGSSRIYQLCNINPCNENSLDFRAQQCAEYNSKPFRGWFYQWKPYTKVEEEDRCKLYCKAENFEFFFAMSGKVKDGTPCSPNKNDVCIDGVCELVGCDHELGSKAVSDACGVCKGDNSTCKFYKGLYLNQHKANEYYPVVLIPAGARSIEIQELQVSSSYLAVRSLSQKYYLTGGWSIDWPGEFPFAGTTFEYQRSFNRPERLYAPGPTNETLVFEILMQGKNPGIAWKYALPKVMNGTPPATKRPAYTWSIVQSECSVSCGGGYINVKAICLRDQNTQVNSSFCSAKTKPVTEPKICNAFSCPAYWMPGEWSTCSKACAGGQQSRKIQCVQKKPFQKEEAVLHSLCPVSTPTQVQACNSHACPPQWSLGPWSQCSKTCGRGVRKRELLCKGSAAETLPESQCTSLPRPELQEGCVLGRCPKNSRLQWVASSWSECSATCGLGVRKREMKCSEKGFQGKLITFPERRCRNIKKPNLDLEETCNRRACPAHPVYNMVAGWYSLPWQQCTVTCGGGVQTRSVHCVQQGRPSSSCLLHQKPPVLRACNTNFCPAPEKREDPSCVDFFNWCHLVPQHGVCNHKFYGKQCCKSCTRKI
modifications: recombinant, 293T-expressed
notes: recombinant disintegrin and metalloprotease with thrombospondin-like motifs, expressed with pBudCE4.1 in 293T cells
Platelets [1]
  platelet 12(S)-HETE: induced
Platelets [2]; concentration not given
  platelet oxidation/fragmentation: induced
Platelets [2]; thrombin 0.5μ/mL, then neutralized with hirudin, n=4
  time of optimum effect of activation by thrombin: one
